What was measured:
[1] = substrate: C[C@@H](N)C(=O)O; test: alanine racemase photometric assay; format: biochemical, Streptococcus pneumoniae; conditions: 23°C, D- to L-alanine direction
[2] = substrate: C[C@H](N)C(=O)O; test: alanine racemase photometric assay; format: biochemical, Streptococcus pneumoniae; conditions: 23°C, L- to D-alanine direction

B1: AlrSP (alanine racemase from S. pneumoniae) (Streptococcus pneumoniae R6) (protein)
chain: MKASPHRPTKALIHLGAIRQNIQQMGAHIPQGTLKLAVVKANAYGHGAVAVAKAIQDDVDGFCVSNIDEAIELRQAGLSKPILILGVSEIEAVALAKEYDFTLTVAGLEWIQALLDKEVDLTGLTVHLKIDSGMGRIGFREASEVEQAQDLLQQHGVCVEGIFTHFATADEESDDYFNAQLERFKTILASMKEVPELVHASNSATTLWHVETIFNAVRMGDAMYGLNPSGAVLDLPYDLIPALTLESALVHVKTVPAGACMGYGATYQADSEQVIATVPIGYADGWTRDMQNFSVLVDGQACPIVGRVSMDQITIRLPKLYPLGTKVTLIGSNGDKEITATQVATYRVTINYEVVCLLSDRIPREYY
notes: full length, 367 residues, 39854 Da, homodimer (~80 kDa by gel filtration); pET17-alrSP (NdeI/BamHI) in E. coli BL21(DE3) pLysS; no tag mentioned
Km [1]: 2100 µM
Km [2]: 1920 µM
